biological target: HLA-A*02:01 (Homo sapiens, UniProt P04439, D140Y/D185E/D98H/E176V/E277Q/G131W/G231S/I119V/I121R/I166T/I218V/L300P/L318F/N151K/N90K/P208A/P217A/Q86G/Q94H/R138H/R169H/T345S); experiment: MHC binding assay: UV-ligand exchange with beta2m ELISA (exchange yield); settings: binding to HLA-A*02:01, β2m ELISA
Method in brief: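 Peptide–HLA-A*02:01 complexes formed by UV-induced exchange of a photocleavable ligand for the test peptide. Exchange products diluted 100-fold and captured on streptavidin-coated plates. Stabilized complexes detected with HRP anti-β2m (1 h, 37° C.) and TMB, A450; exchange yield reported.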

| Substance | Peptide exchange (MHC class I binding score, peptide exchange yield) |
| --- | --- |
| 477 (ALLPASGQIAL; listed as Homo sapiens) [compound 477] | “+++” (≥50 = +++) |
| 202 (ALLDQQGSRWTL; listed as Homo sapiens) [compound 202] | “+++” (≥50 = +++) |
| 93 (LLQAIKLYL; listed as Homo sapiens) [compound 93] | “++” (≥20% = ++) |
| 451 (LLLLDTVTMQV; listed as Homo sapiens) [compound 451] | “++” (≥20% = ++) |
| 86 (NLIGKIENV; listed as Homo sapiens) [compound 86] | “+++” (≥50 = +++) |
| 528 (SVAEGRALMSV; listed as Homo sapiens) [compound 528] | “+++” (≥50 = +++) |
| 108 (ALFPGVALLLA; listed as Homo sapiens) [compound 108] | “++++” (≥75% = ++++) |
| 189 (ALQRKLPYV; listed as Homo sapiens) [compound 189] | “+++” (≥50 = +++) |
| 363 (KVLDVSDLESV; listed as Homo sapiens) [compound 363] | “++” (≥20% = ++) |
| 164 (ALLPQPKNLTV; listed as Homo sapiens) [compound 164] | “+++” (≥50 = +++) |
| 349 (SLTEYLQNV; listed as Homo sapiens) [compound 349] | “++++” (≥75% = ++++) |
| 442 (GLLGGGGVLGV; listed as Homo sapiens) [compound 442] | “+++” (≥50 = +++) |
| 72 (SLLELDGINL; listed as Homo sapiens) [compound 72] | “+++” (≥50 = +++) |
| 462 (KLAKQPETV; listed as Homo sapiens) [compound 462] | “+++” (≥50 = +++) |
| 139 (SVMEVNSGIYRV; listed as Homo sapiens) [compound 139] | “+++” (≥50 = +++) |
| 175 (YLFENISQL; listed as Homo sapiens) [compound 175] | “+++” (≥50 = +++) |
| 389 (LLADVTHLL; listed as Homo sapiens) [compound 389] | “++” (≥20% = ++) |
| 394 (LLAVIGGLVYL; listed as Homo sapiens) [compound 394] | “+++” (≥50 = +++) |
| 605 (KLYEAVPQL; listed as Homo sapiens) [compound 605] | “+++” (≥50 = +++) |
| 523 (YQIPRTFTL; listed as Homo sapiens) [compound 523] | “++” (≥20% = ++) |
| 458 (SLIDKLYNI; listed as Homo sapiens) [compound 458] | “++” (≥20% = ++) |
| 149 (NLLELFVQL; listed as Homo sapiens) [compound 149] | “+++” (≥50 = +++) |
| 263 (LLVSNLDFGV; listed as Homo sapiens) [compound 263] | “+++” (≥50 = +++) |
| 612 (YLYNEGLSV; listed as Homo sapiens) [compound 612] | “+++” (≥50 = +++) |
| 160 (FLFDEEIEQI; listed as Homo sapiens) [compound 160] | “+++” (≥50 = +++) |
| 269 (RVLEVGALQAV; listed as Homo sapiens) [compound 269] | “++” (≥20% = ++) |
| 427 (ALLPLSPYL; listed as Homo sapiens) [compound 427] | “+++” (≥50 = +++) |
| 380 (TLIEDEIATI; listed as Homo sapiens) [compound 380] | “++” (≥20% = ++) |

More lines, now with the values ahead:

| Peptide exchange (MHC class I binding score, peptide exchange yield) | Substance |
| --- | --- |
| “+++” (≥50 = +++) | 507 (KLIDDQDISISL; listed as Homo sapiens) [compound 507] |
| “++” (≥20% = ++) | 429 (GLVNDLARV; listed as Homo sapiens) [compound 429] |
| “++++” (≥75% = ++++) | 340 (ALLSMTFPL; listed as Homo sapiens) [compound 340] |
| “+++” (≥50 = +++) | 473 (AMATESILHFA; listed as Homo sapiens) [compound 473] |
| “++++” (≥75% = ++++) | 321 (GLFEDVTQPGILL; listed as Homo sapiens) [compound 321] |
| “++++” (≥75% = ++++) | 438 (KLLPLAGLYL; listed as Homo sapiens) [compound 438] |
| “+++” (≥50 = +++) | 369 (GLFPEHLIDV; listed as Homo sapiens) [compound 369] |
| “+++” (≥50 = +++) | 138 (YQYPRAILSV; listed as Homo sapiens) [compound 138] |
| “++” (≥20% = ++) | 382 (ALQNYIKEA; listed as Homo sapiens) [compound 382] |
| “++” (≥20% = ++) | 412 (YLDDLNEGVYI; listed as Homo sapiens) [compound 412] |
| “+++” (≥50 = +++) | 599 (YLLNDASLISV; listed as Homo sapiens) [compound 599] |
| “++++” (≥75% = ++++) | 602 (YLLEQIKLIEV; listed as Homo sapiens) [compound 602] |
| “+++” (≥50 = +++) | 476 (ALMERTGYSMV; listed as Homo sapiens) [compound 476] |
| “++++” (≥75% = ++++) | 395 (ALALGGIAVV; listed as Homo sapiens) [compound 395] |
| “+++” (≥50 = +++) | 147 (SLLEAVSFL; listed as Homo sapiens) [compound 147] |
| “+++” (≥50 = +++) | 613 (RLLPPGAVVAV; listed as Homo sapiens) [compound 613] |
| “+++” (≥50 = +++) | 326 (FLPEALDFV; listed as Homo sapiens) [compound 326] |
| “++” (≥20% = ++) | 375 (SLTETIEGV; listed as Homo sapiens) [compound 375] |
| “+++” (≥50 = +++) | 551 (KLYESLLPFA; listed as Homo sapiens) [compound 551] |

| Peptide exchange (MHC class I binding score, peptide exchange yield) | Substance |
| --- | --- |
| “+++” (≥50 = +++) | 309 (GLFDGVPTTA; listed as Homo sapiens) [compound 309] |
| “+++” (≥50 = +++) | 589 (KLYPQLPAEI; listed as Homo sapiens) [compound 589] |
| “+++” (≥50 = +++) | 635 (SLDSTLHAV; listed as Homo sapiens) [compound 635] |
| “++++” (≥75% = ++++) | 7 (SLVGLLLYL; listed as Homo sapiens) [compound 7] |
| “+++” (≥50 = +++) | 12 (SLWPDPMEV; listed as Homo sapiens) [compound 12] |
| “+++” (≥50 = +++) | 295 (VLDRESPNV; listed as Homo sapiens) [compound 295] |
| “+++” (≥50 = +++) | 509 (FLFDTKPLIV; listed as Homo sapiens) [compound 509] |
| “++++” (≥75% = ++++) | 348 (ILLDVKTRL; listed as Homo sapiens) [compound 348] |
| “+++” (≥50 = +++) | 547 (TLDITPHTV; listed as Homo sapiens) [compound 547] |
| “+++” (≥50 = +++) | 288 (NLINEINGV; listed as Homo sapiens) [compound 288] |
| “+++” (≥50 = +++) | 276 (ALFTFSPLTV; listed as Homo sapiens) [compound 276] |
| “+++” (≥50 = +++) | 501 (LLDPNVKSIFV; listed as Homo sapiens) [compound 501] |
| “++” (≥20% = ++) | 505 (SLAPGDVVRQV; listed as Homo sapiens) [compound 505] |
| “++” (≥20% = ++) | 353 (YLFEMDSSL; listed as Homo sapiens) [compound 353] |
| “+++” (≥50 = +++) | 74 (ALLDPEVLSIFV; listed as Homo sapiens) [compound 74] |
| “+++” (≥50 = +++) | 468 (YLRSVGDGETV; listed as Homo sapiens) [compound 468] |
| “+++” (≥50 = +++) | 500 (SLMEDQVLQL; listed as Homo sapiens) [compound 500] |
| “+++” (≥50 = +++) | 34 (ILVEADSLWVV; listed as Homo sapiens) [compound 34] |
| “+++” (≥50 = +++) | 618 (VLFDSESIGIYV; listed as Homo sapiens) [compound 618] |
